Measured values: patent US20260217789A1 (GLYCOERA, published 2026)

What was measured:
[1] = molecular target: T1, PLA2R glycoengineered polypeptide (human, UniProt Q13018 21-505, N-glycans, mainly A2GalNAc2 (83.6% of total N-glycan); six N-glycosylation sites: N93, N315, N433, N454, N473 and one in the C-terminal glycotag; occupancy per Table 2: N93 >99%, N315 <10%, N433 <1%, …); assay: SPR, Biacore 8K, single cycle kinetics, heterogeneous binding model; biotinylated ASGPR1 on streptavidin, 2 mM CaCl2 (FIG. 1C)
T1 construct: Secreted from glycoengineered Leishmania tarentolae (cell line StCGP6199) and purified by IMAC; also called exemplary PLA2R glycoengineered polypeptide; glycoengineered PLA2R polypeptide
Text: (§1) Methods: Surface plasmon resonance (SPR) was used to measure binding kinetics (i.e., ka, kd, KD, equilibrium) of a glycoengineered PLA2R polypeptide. SPR data was collected with a Biacore 8K instrument to characterize interactions between the PLA2R glycoengineered polypeptide and surrogate anti-PLA2R antibody 12-6-5 in multiple assay formats. The surrogate antibody was either captured using the Fc tag or covalently immobilized on the sensor surface, and the PLA2R glycoengineered polypeptide construct was injected in increasing concentrations in a single cycle kinetics experiment. The contact time was 300 s and the dissociation time was 1200 s. The data was fit to a 1:1 binding model with the global fitting software provided by Cytivia. For ASGPR1 binding experiments, biotinylated recombinant human ASGPR1 (Acro Biosystems) was immobilized using streptavidin capture, and increasing concentrations of the PLA2R glycoengineered polypeptide were injected in a single cycle kinetics experiment. ASGPR1 assays included 2 mM CaCl₂) in the running buffer. The data were fit using a heterogeneous binding model using the Cytvia provided software.

[2] = molecular target: T1, PLA2R glycoengineered polypeptide; assay: SPR, Biacore 8K, steady state KD; biotinylated ASGPR1 on streptavidin, 2 mM CaCl2 (FIG. 1C)
Text: as §1

[3] = molecular target: T1, PLA2R glycoengineered polypeptide; assay: SPR (Biacore 8K), single cycle kinetics, immobilized ligand ASGPR1 1ug/mL (biotinylated, streptavidin capture), heterogeneous binding model; column kd1 (first component)
Text: as §1

[4] = molecular target: T1, PLA2R glycoengineered polypeptide; assay: SPR (Biacore 8K), single cycle kinetics, immobilized ligand ASGPR1 1ug/mL (biotinylated, streptavidin capture), heterogeneous binding model; column KD1 (first component)
Text: as §1

[5] = molecular target: T1, PLA2R glycoengineered polypeptide; assay: SPR (Biacore 8K), single cycle kinetics, immobilized ligand ASGPR1 1ug/mL (biotinylated, streptavidin capture), heterogeneous binding model; column ka1 (first component)
Text: as §1

T1 sequence (Q13018 other isoform, or with tags, fused parts or gaps): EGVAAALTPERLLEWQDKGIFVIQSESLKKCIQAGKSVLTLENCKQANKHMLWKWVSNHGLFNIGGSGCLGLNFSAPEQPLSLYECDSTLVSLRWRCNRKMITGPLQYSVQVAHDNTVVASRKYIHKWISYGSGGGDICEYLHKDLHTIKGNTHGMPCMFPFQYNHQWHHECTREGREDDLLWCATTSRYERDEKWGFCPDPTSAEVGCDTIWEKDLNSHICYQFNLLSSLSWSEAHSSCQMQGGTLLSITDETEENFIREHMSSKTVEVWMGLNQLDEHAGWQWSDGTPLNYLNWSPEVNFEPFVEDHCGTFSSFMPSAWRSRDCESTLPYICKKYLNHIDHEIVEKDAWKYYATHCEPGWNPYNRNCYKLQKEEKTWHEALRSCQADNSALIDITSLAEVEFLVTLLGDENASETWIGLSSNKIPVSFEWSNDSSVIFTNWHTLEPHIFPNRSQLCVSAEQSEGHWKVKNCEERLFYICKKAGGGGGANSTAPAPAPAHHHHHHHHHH

B1: biotinylated recombinant human ASGPR1 (Acro Biosystems) (receptor, UniProt P07306 62-291, looked up)
chain: QNSQLQEELRGLRETFSNFTASTEAQVKGLSTQGGNVGRKMKSLESQLEKQQKDLSEDHSSLLLHVKQFVSDLRSLSCQMAALQGNGSERTCCPVNWVEHERSCYWFSRSGKAWADADNYCRLEDAHLVVVTSWEEQKFVQHHIGPVNTWMGLHDQNGPWKWVDGTDYETGFKNWRPEQPDDWYGHGLGGGEDCAHFTDDGRWNDDVCQRPYRWVCETELDKASQEPPLL
modifications: biotinylated
notes: It was immobilized by streptavidin capture
Work on B1 yielded a koff [1] of 0.104 s⁻¹, a kon [1] of 80900 M⁻¹ s⁻¹ and a Kd [2] of 1280 nM. For the same binder, the koff [3] was 0.00294 s⁻¹, the Kd [4] was 7 nM and the kon [5] was 421000 M⁻¹ s⁻¹.
